Source: patent US12624112 (MABWELL SHANGHAI BIOSCIENCE, dated 2026)
Positions count from the first letter of the chain named. Values belong to the molecule of their own block, whether it stands above or below them.

Experiments:
[1] = molecular target: Human ST2-fc (human) (UniProt Q01638); experiment: competition ELISA, coated ST2-fc, competitor IL33-his
[2] = molecular target: Human ST2-fc (human) (UniProt Q01638); experiment: competition ELISA: human ST2-fc coated, antibody titrated in a mixture with human IL33-his (blocked ligand), bound IL33-his detected with an anti-His secondary antibody, OD450-OD650 [continued), 9-7]
[3] = molecular target: Human ST2-fc (human) (UniProt Q01638); experiment: competition ELISA: human ST2-fc coated, antibody titrated in a mixture with human IL33-his (blocked ligand), bound IL33-his detected with an anti-His secondary antibody, OD450-OD650 [continued), 9-5]
[4] = molecular target: Human ST2-fc (human) (UniProt Q01638); experiment: competition ELISA: human ST2-fc coated, antibody titrated in a mixture with human IL33-his (blocked ligand), bound IL33-his detected with an anti-His secondary antibody, OD450-OD650 [continued), 9-4]

- Maximum inhibition rate [1]: 92.5%
- IC50 (read off the curve) [2]: 0.9 µg/mL
- IC50 (read off the curve) [3]: 1 µg/mL
Molecule: Control antibody CNTO7160

- IC50 (read off the curve) [4]: 3 µg/mL
B1: 5888-153-H2L0 (antibody, human IgG4 S228P, kappa, V domains shown)
VH: QVQLVQSGAEVKKPGASVKVSCKASGYTFTDYELHWVRQAPGQGLEWMGTIDPETGDTVYNQKFKARVTMTADKSTSTAYMELSSLRSEDTAVYYCTRAFYNDYDEGFAYWGQGTLVTVSS
VL: EIVLTQSPATLSLSPGERATLSCSVSSSVSYMHWYQQKPGQAPRLLIYDTSKLASGIPARFSGSGSGTDFTLTISSLEPEDFAVYYCQQWNSSPLTFGGGTKVEIKR

- IC50 (read off the curve) [4]: 2 µg/mL
B2: 5888-153-H2L1 (antibody, human IgG4 S228P, kappa, V domains shown)
VH: B1 VH
VL: B1 VL with L4M, L45R, F70Y, F82A
